From the supplement of paper PMC9112550, “Optimization of the antimicrobial peptide Bac7 by deep mutational scanning” (BMC Biology, 2022) come the findings set out here.

The series relates to Escherichia coli TOP10. As to the kind of experiment: shrunken log2 fold change of peptide-encoding DNA abundance (4.5 h post-induction vs induction); higher = less antimicrobial activity (less host growth inhibition). Particulars: time post-induction: 4.5 h; library: site-saturation at positions 5, 18, 19, 20.
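Note: peptides expressed intracellularly from a pBAD plasmid library in pooled LB shake-flask culture, induced with 0.3% L-arabinose, DNA abundance read by NGS, three biological replicates, DESeq2 with apeglm shrinkage.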

As to RRIRKRPPRLPRPRPRPVQRPRP, the “shrunken log2 fold change” value is 0.0869. Under RRIRYRPPRLPRPRPRPSGWPRP stands -0.00312. RRIRQRPPRLPRPRPRPELTPRP: the “shrunken log2 fold change” value is 0.232. For RRIRIRPPRLPRPRPRPTIFPRP, the “shrunken log2 fold change” value was -0.398. RRIRVRPPRLPRPRPRPAQPPRP: the “shrunken log2 fold change” value came out at 0.228.

With RRIRSRPPRLPRPRPRPDQAPRP, the “shrunken log2 fold change” value is -0.107. With RRIRNRPPRLPRPRPRPYLFPRP, the “shrunken log2 fold change” value is -0.541. Under RRIRERPPRLPRPRPRPTYVPRP stands -0.132; under RRIRYRPPRLPRPRPRPMVWPRP, -0.0211. RRIRVRPPRLPRPRPRPHYLPRP: the “shrunken log2 fold change” value amounted to 0.00696. RRIRRRPPRLPRPRPRPNWKPRP: the “shrunken log2 fold change” value was -0.0144. With RRIRMRPPRLPRPRPRPGGNPRP, the “shrunken log2 fold change” value turned out to be 0.671. As to RRIRPRPPRLPRPRPRPMPCPRP, the “shrunken log2 fold change” value stood at 0.0941.

As to RRIRRRPPRLPRPRPRPCLPPRP, the “shrunken log2 fold change” value was -0.132. As to RRIRKRPPRLPRPRPRPHAWPRP, the “shrunken log2 fold change” value came to 0.897. On to RRIRRRPPRLPRPRPRPKARPRP, for which the “shrunken log2 fold change” value turned out to be 0.277. As for RRIRIRPPRLPRPRPRPCDVPRP, the “shrunken log2 fold change” value was -0.124. Consider RRIRTRPPRLPRPRPRPGDAPRP, for which the “shrunken log2 fold change” value was 0.206.

As to RRIRYRPPRLPRPRPRPCVEPRP, the “shrunken log2 fold change” value is -0.0115. RRIRYRPPRLPRPRPRPEWNPRP: the “shrunken log2 fold change” value was -0.861. Next, RRIRKRPPRLPRPRPRPTMGPRP: -0.0139. With RRIRNRPPRLPRPRPRPCCDPRP, the “shrunken log2 fold change” value is -0.0282. For the sequence RRIRIRPPRLPRPRPRPIYAPRP, the “shrunken log2 fold change” value is -0.758. As for RRIRARPPRLPRPRPRPICSPRP, the “shrunken log2 fold change” value amounted to 0.251. In the case of RRIRNRPPRLPRPRPRPPHGPRP, the “shrunken log2 fold change” value was -0.0913. RRIRGRPPRLPRPRPRPASNPRP: the “shrunken log2 fold change” value is 0.375. With RRIRPRPPRLPRPRPRPTFWPRP, the “shrunken log2 fold change” value worked out at 0.333.

RRIRQRPPRLPRPRPRPIAKPRP: the “shrunken log2 fold change” value is -0.00229. Turning to RRIRVRPPRLPRPRPRPSHSPRP, the “shrunken log2 fold change” value is -0.171. Regarding RRIRNRPPRLPRPRPRPGDWPRP, the “shrunken log2 fold change” value turned out to be 2.87.

RRIRQRPPRLPRPRPRPGYEPRP: the “shrunken log2 fold change” value is 0.00854. RRIRSRPPRLPRPRPRPDAIPRP: the “shrunken log2 fold change” value turned out to be 0.339. Next, RRIRSRPPRLPRPRPRPVTTPRP: -0.163. Turning to RRIRGRPPRLPRPRPRPVENPRP, the “shrunken log2 fold change” value turned out to be 0.757. Take RRIRKRPPRLPRPRPRPGDFPRP: the “shrunken log2 fold change” value worked out at 0.18. RRIRERPPRLPRPRPRPWYLPRP: the “shrunken log2 fold change” value was 0.0355.

For the sequence RRIRQRPPRLPRPRPRPWLNPRP, the “shrunken log2 fold change” value is -0.0662.

As to RRIRDRPPRLPRPRPRPFYYPRP, the “shrunken log2 fold change” value was -0.899. As to RRIRKRPPRLPRPRPRPPGCPRP, the “shrunken log2 fold change” value worked out at 0.955. As to RRIRHRPPRLPRPRPRPGEEPRP, the “shrunken log2 fold change” value amounted to 0.03.

In the case of RRIRCRPPRLPRPRPRPCAMPRP, the “shrunken log2 fold change” value is -0.103.

For RRIRERPPRLPRPRPRPDRHPRP, the “shrunken log2 fold change” value was -0.0302.

Take RRIRWRPPRLPRPRPRPLYAPRP: the “shrunken log2 fold change” value is 0.188. Take RRIRDRPPRLPRPRPRPIAPPRP: the “shrunken log2 fold change” value came out at 0.0634. Consider RRIRWRPPRLPRPRPRPKCWPRP, for which the “shrunken log2 fold change” value turned out to be 0.467. Turning to RRIRKRPPRLPRPRPRPVPRPRP, the “shrunken log2 fold change” value stood at 0.72.

In the case of RRIRDRPPRLPRPRPRPKSVPRP, the “shrunken log2 fold change” value turned out to be 0.0458. With RRIRERPPRLPRPRPRPDGNPRP, the “shrunken log2 fold change” value was -0.032. As for RRIRYRPPRLPRPRPRPEEDPRP, the “shrunken log2 fold change” value is -0.0024. Next, RRIRSRPPRLPRPRPRPCCDPRP: -0.284.
